Assay results: PMC2908537

Key:
Test in all cases: SPR; WT or point-mutant CRT immobilised on a biosensor chip at about 500 RU by primary amine coupling, SE 15mer peptides run as analyte; read-out RU, mean ± SEM; 25°C, 10 mM HEPES pH 7.4, 50 mM KCl, 0.5 mM CaCl2, 100 µM ZnCl2, 0.005% surfactant P-20, flow 10 µl/min
[1] = target: CRT D220A mutant, 6xHis-tagged (not stated (rabbit or mouse cDNA cloned)) (UniProt P14211)
[2] = target: CRT E217A mutant, 6xHis-tagged (not stated (rabbit or mouse cDNA cloned)) (UniProt P14211)
[3] = target: CRT E223A mutant, 6xHis-tagged (not stated (rabbit or mouse cDNA cloned)) (UniProt P14211)
[4] = target: CRT H224A mutant, 6xHis-tagged (not stated (rabbit or mouse cDNA cloned)) (UniProt P14211)
[5] = target: CRT N279A mutant, 6xHis-tagged (not stated (rabbit or mouse cDNA cloned)) (UniProt P14211)
[6] = target: CRT Y254A mutant, 6xHis-tagged (not stated (rabbit or mouse cDNA cloned)) (UniProt P14211)
[7] = target: wild-type CRT, 6xHis-tagged, from the pBAD vector (not stated (rabbit or mouse cDNA cloned)) (UniProt P14211)

Substance: SE-expressing 15mer synthetic peptide 65-79*0401
- RU [1]: 70.1 RU
- RU [2]: 50.9 RU
- RU [3]: 56.7 RU
- RU [4]: 68.2 RU
- RU [5]: 106 RU
- RU [6]: 66.5 RU
- RU [7]: 71.2 RU

Substance: SE-expressing 15mer synthetic peptide 65-79*0404
- RU [1]: 120 RU
- RU [2]: 106 RU
- RU [3]: 84.6 RU
- RU [4]: 128 RU
- RU [5]: 145 RU
- RU [6]: 113 RU
- RU [7]: 128 RU
